Results published in the supplement of paper PMC9170038.

System: MS2 coat protein
Assay: apparent KD of MS2 coat protein; higher = weaker reporter binding
Settings: Eterna round: R107
Description: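 RNA-MaP round R107: designed RNA switches with theophylline, tryptophan, arginine or FMN aptamers are transcribed on-chip within common flanks. They are titrated with SNAP-549-labelled MS2 coat protein in RNA-MaP buffer (100 mM Tris pH 7.5, 80 mM KCl, 4 mM MgCl2), without ligand or with the indicated ligand. Median apparent KD per design.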

[1] = input ligand: theophylline 20 uM
[2] = input ligand: theophylline 2 mM
[3] = input ligand: tryptophan 2.4 mM

Sequence	apparent KD of MS2 coat protein (input ligand: arginine 13.2 mM) [nM]	apparent KD of MS2 coat protein (input ligand: none) [nM]	apparent KD of MS2 coat protein [1] [nM]	apparent KD of MS2 coat protein [2] [nM]	apparent KD of MS2 coat protein [3] [nM]
AAAAGAGGUGGAAGGAGCGGGAGACAUGAGGAUCACCCAUGUGAUGUGACGAAAGGGUCAGCCCAGGUAGGUCGCCAUGUCGAAA [yuyymullin]	54.6	62.9	76.2	134	27.3
CCAUCUACAUCGGCCGCCACUGAACCAAGGAGACAUGAGGAUCACCCAUGUAUGGGAAACCAUCAUAGGACCGGGAUGAUCUACC [doubleHook]	95.2	–	336	415	–
GAUAUAUACUCGGCCGCCACUGAGAGAGUCAUGUAAACAUGAGGAUCACCCAUGUAAUAUAUAUACAGGACCGGGAGUAUAUUAA [4.C]	16	–	16.1	14	–
CGUAUUGGAAACAGUACGAGUGAUCCGGUCCGAGGACCGGUACGGCCGCCACUCGAUAUAAAUAAACAUGAGGAUCACCCAUGUA [Ex Tryptophan A 12]	17.1	–	16.9	20.3	–
AAUCGUAAGGCGGCCGCCACUACACAUGAGGAUCACCCAUGUCUCGCAGGCUUGCGUUGGGUUAGUAGGACCGGGCCAGUAAUAA [Exclusion - Tryptophan B (Freestyle 15)]	25.8	32.1	43.2	37	34.5
CGGUUUGUGAUGGAUACCAGCAGAGAAAAUGUUUAUCCUAACAUGAGGAUCACCCAUGUAUGCCCUUGGCAGCUGUUGUGGGCUG [8.V]	43.3	–	80.4	–	52.5
UGGCAGCACCUCAUGUGCUGCCAAGGUGAUACCAGCAUCGAAAGAUGCCCUUGGCAGCACCAACAUGAGGAUCACCCAUGUAAUA [(MT)''-(M)'-(T')-(Theo)-(Ms2)_Design1/22_7]	26.8	–	374	–	217
CGAAAGCUCCUUAUGUGCUUUCGACUGGAAGGAGCGAGCGAAAGCUCAGGUAGGUCGCCAGAAACAUGAGGAUCACCCAUGUAAU [(A)''-(M)'-(A)'(Arg1)-(Arg2)-(M1)-(M2)_Design9]	29.8	18	25.6	27.2	18.5
CCCAACAGUGAUGCCGGUGUUGGUGGUGAUACCAGCGUCUUAUGGCGCCCUUGGCAGCACCAACAUGAGGAUCACCCAUGUGAAA [Beenerveor]	19.8	–	113	–	36.9
GUCUUGGGAUCGGCCGCCACUACAUGAGGAUCACCCAUGUGGACAAAUAGGGUUGUUAAGCUCGGUAGGACCGGGAUUCGGACAU [Oncetexeza]	22.1	26	41.1	27.3	111
CCUGAUGAGUCGGCCGCCACUCCAGUUGUAUUACAGGUUUUCGUAGACAUGAGGAUCACCCAUGUGAGGACCGGGACACACACAG [theeternabot_exclusion_MS2_Trp_B_21]	11.7	11.3	23.8	17.4	17.2
CGAGUAGGUUCAAUCGAAUAACGGUUUUCGCGAGGACCGGUACGGCCGCCACUCGUGUGAUAUCACACAUGAGGAUCACCCAUGU [3'end-1]	33.5	–	49.2	68	–
AACGUAUACAGAAGGAGCGUGAUUUAUAUUACUCAUUCAUAUACAUGAGGAUCACCCAUGUCACAGGUAGGUCGCUGUAUUCGUA [JR_ExcArginiB_Sub021]	76	153	165	157	108
GGGUACAUCGCGGCCGCCACUUGUGUAAAUACAUGAGGAUCACCCAUGUCGAUGGAGACAUCGGGAAGGACCGGGUGAUGUACCG	218	342	802	1200	650
CCAUGCAGGUCGGCCGCCACUACACACAUGAGGAUCACCCAUGUAGUUACUGGGUGAAGUGGCAGUAGGACCGGGACCUGCACAC [Brourdmod20]	84	289	446	601	335
GGAGCUACGUCGGCCGCCACUAGCGGGUAUUGCGUGUACAUGAGGAUCACCCAUGUAAUACGGCCUAGGACCGGGACGUAGCUCC [Raven]	12.1	–	19.1	14.5	13.8
GGGCGAGUGGAGCGGCGUGCUCCGCUCCGUCGAGGACCGGUACGGCCGCCACUCGACAUGAGGAUCACCCAUGUGCGAGCUCGCG [#1 Exclusion - Tryptophan A Attempt #13 (HarryS)]	7.39	17.6	27.1	58.6	180
AUAAUGGGUAUCGGAUUAUCAUGAUAUGAUACCAGAUACUUAGAUAUCCCUUGGCAGCAUGAGGACAUGAGGAUCACCCAUGUAU [#04 Exclusion-TheophyllineA]	32.1	–	50.3	–	39.9
GGUAUAUAGGCGGCCGCCACUGAUUUUCAUAUAUAUAUAACAUGAGGAUCACCCAUGUAGAUAUACAGGACCGGGCCUAUAUAUU [aaaC]	16.1	–	17.7	16.4	–
UUGCCCAGUACGGCCGCCACUGUGUGCAGGGAGCCCAGGUCCACAUGAGGAUCACCCAUGUACAACAGGACCGGGUACUUGCAAU [Usdizaqu]	7.54	–	12.7	11.8	–
GGCGCGAGCCAACAUGAGGAUCACCCAUGUCGAGGACCGGUACGGCCGCCACUCGAACGAGUGAAGCGCGCGCGCGCGCGCGCGC [Uaa]	32.4	61.5	106	68.8	167
CGAAUACCAAUUGAUACCAGCAUGUUAACAUGAGGAUCACCCAUGUUAAGGAUAACAUAAUGCCCUUGGCAGCAACGUAAAUUCG [Aa]	19.2	–	22.9	–	19.6
GCACCAGGUACGGAUACCAGCUGCCAUAGUUACAUGAGGAUCACCCAUGUGAUCUAUUGUAGCCCUUGGCAGCUGUACCUGGUGC [SSThB NP+V+V2 #5 Same Structure]	71.2	–	398	–	46.8
AGACAUGAGGAUCACCCAUGUAGCAUGGAUACCAGAUGCAGAUUUAUCCCUUGGCAGCUGUGGUAAAGUGAUGCAUUGCUCCUAG [Exclusion - Theophylline A (Freestyle 6)]	18.8	22.6	31	27.1	23.8
AGCUCGCAUCCUCAAGCGUCAAAGACGCGUCGAGGACCGGUACGGCCGCCACUCGACAAGAGGAUCACCCUUGUCUAAGCGAGCA [TrypAX 4 #SwitchBubble #AlternativeMS2 #MS2Late #CuTurnoff]	73.3	195	182	264	254
CGAUAUGAGGUCGAUACCAGCAGCUUCAAGCACAUGAGGAUCACCCAUGUCCAUUUUACUUGCCCUUGGCAGCGACUUUGGAAAC [theeternabot_sameState_MS2_Theo_B_23]	36.2	–	34.9	–	38.4
CGAGUAAGAACAAUCGAAUAACGGUUUUCGCGAGGACCGGUACGGCCGCCACUCGUGUGAUAUCACACAUGAGGAUCACCCAUGU [3'end-1]	61.3	–	96.7	101	–
UCGCCCAGGUAGGCUUAAUGGGAUAUGGAAGGAGCGCUGAUGCCAGCAGGUAGGUCGCCAACGGACAUGAGGAUCACCCAUGUAC [Same State - Arginine A (Freestyle 4)]	24.7	18	34.6	27.1	22.7
CCAGCCCUUCUAGAUACCAGCUUUCAAUAUAAGACAACUCACAUGAGGAUCACCCAUGUUAGCCCUUGGCAGCUAAGAUCCACAA [theeternabot_exclusion_MS2_Theo_B_32]	46.6	–	67	–	48.5
